# Source: US20110300138A1 (published 2011)
# Where two headings read alike, the source gives them in different places.
# Key:
# Test in all cases: cell-based or functional assay
# [1] = molecular target: TSHR with Ile60 mutated to Ala, expressed in CHO cells (human) (UniProt P16473)
# [2] = molecular target: TSHR with Glu178 mutated to Ala expressed in CHO cells (human) (UniProt P16473)
# [3] = molecular target: wild type TSHR expressed in CHO cells (human) (UniProt P16473)
# [4] = molecular target: TSHR with Ser281 mutated to Ala, expressed in CHO cells (human) (UniProt P16473)
# [5] = molecular target: TSHR with Tyr82 mutated to Ala expressed in CHO cells (human) (UniProt P16473)
# [6] = molecular target: TSHR with Glu107 mutated to Ala expressed in CHO cells (human) (UniProt P16473)
# [7] = molecular target: TSHR with Glu61 mutated to Ala, expressed in CHO cells (human) (UniProt P16473)
# [8] = molecular target: wild type TSHR (human TSH receptor) expressed in CHO cells (human) (UniProt P16473)
# [9] = molecular target: TSHR with Lys183 mutated to Asp expressed in CHO cells (human) (UniProt P16473)
# [10] = molecular target: wild type TSHR expressed in CHO cells (human) (UniProt P16473); remark: listed apart in the source
# [11] = molecular target: TSHR with Phe134 mutated to Ala, expressed in CHO cells (human) (UniProt P16473)
# [12] = molecular target: wild type TSHR expressed in CHO cells (human) (UniProt P16473); remark: listed apart in the source
# [13] = molecular target: TSHR with Phe130 mutated to Ala, expressed in CHO cells (human) (UniProt P16473)
substance,measurement,setting,value
"5B3 (human monoclonal antibody to GAD, negative control for K1-70)",% inhibition of TSH stimulation; 5B3 10 µg/mL; Experiment 1,[1],0%
same,% inhibition of TSH stimulation; 5B3 10 µg/mL; Experiment 2,[1],17%
same,% inhibition of TSH stimulation; 5B3 100 µg/mL; Experiment 1,[1],14%
same,% inhibition of TSH stimulation; 5B3 100 µg/mL; Experiment 2,[1],0%
same,Mutated/wild type (%) of cyclic AMP produced; 5B3 10 µg/mL + TSH 3 ng/mL; Experiment 1,[1],58%
same,Mutated/wild type (%) of cyclic AMP produced; 5B3 10 µg/mL + TSH 3 ng/mL; Experiment 2,[1],53%
same,Mutated/wild type (%) of cyclic AMP produced; 5B3 100 µg/mL + TSH 3 ng/mL; Experiment 1,[1],50%
same,Mutated/wild type (%) of cyclic AMP produced; 5B3 100 µg/mL + TSH 3 ng/mL; Experiment 2,[1],62%
same,% inhibition of TSH stimulation; 5B3 10 µg/mL; Exp 1,[2],0%
same,% inhibition of TSH stimulation; 5B3 10 µg/mL; Exp 2,[2],0%
same,% inhibition of TSH stimulation; 5B3 100 µg/mL; Exp 1,[2],0%
same,% inhibition of TSH stimulation; 5B3 100 µg/mL; Exp 2,[2],3%
same,Cyclic AMP produced; 5B3 10 µg/mL + TSH 3 ng/mL; Exp 1,[2],57.6 pmol/mL
same,Cyclic AMP produced; 5B3 10 µg/mL + TSH 3 ng/mL; Exp 2,[2],55 pmol/mL
same,Cyclic AMP produced; 5B3 100 µg/mL + TSH 3 ng/mL; Exp 1,[2],57 pmol/mL
same,Cyclic AMP produced; 5B3 100 µg/mL + TSH 3 ng/mL; Exp 2,[2],45 pmol/mL
same,Mutated/wild type (%) of cyclic AMP produced; 5B3 10 µg/mL + TSH 3 ng/mL; Exp 1,[2],88%
same,Mutated/wild type (%) of cyclic AMP produced; 5B3 10 µg/mL + TSH 3 ng/mL; Exp 2,[2],55%
same,Mutated/wild type (%) of cyclic AMP produced; 5B3 100 µg/mL + TSH 3 ng/mL; Exp 1,[2],87%
same,Mutated/wild type (%) of cyclic AMP produced; 5B3 100 µg/mL + TSH 3 ng/mL; Exp 2,[2],46%
same,% inhibition of TSH stimulation; 5B3 10 µg/mL,[3],0%
same,% inhibition of TSH stimulation; 5B3 10 µg/mL; Exp 1,[3],0%
same,% inhibition of TSH stimulation; 5B3 10 µg/mL; Exp 2,[3],0%
same,% inhibition of TSH stimulation; 5B3 10 µg/mL; Experiment 1,[3],0%
same,% inhibition of TSH stimulation; 5B3 10 µg/mL; Experiment 2,[3],0%
same,% inhibition of TSH stimulation; 5B3 100 µg/mL,[3],0%
same,% inhibition of TSH stimulation; 5B3 100 µg/mL; Exp 1,[3],0%
same,% inhibition of TSH stimulation; 5B3 100 µg/mL; Exp 2,[3],0%
same,% inhibition of TSH stimulation; 5B3 100 µg/mL; Experiment 1,[3],5%
same,% inhibition of TSH stimulation; 5B3 100 µg/mL; Experiment 2,[3],0%
same,Cyclic AMP produced; 5B3 10 µg/mL + TSH 3 ng/mL,[3],85.3 pmol/mL
same,Cyclic AMP produced; 5B3 10 µg/mL + TSH 3 ng/mL; Exp 1,[3],65.7 pmol/mL
same,Cyclic AMP produced; 5B3 10 µg/mL + TSH 3 ng/mL; Exp 2,[3],100 pmol/mL
same,Cyclic AMP produced; 5B3 10 µg/mL + TSH 3 ng/mL; Experiment 1,[3],163 pmol/mL
same,Cyclic AMP produced; 5B3 10 µg/mL + TSH 3 ng/mL; Experiment 2,[3],73.7 pmol/mL
same,Cyclic AMP produced; 5B3 100 µg/mL + TSH 3 ng/mL,[3],81.6 pmol/mL
same,Cyclic AMP produced; 5B3 100 µg/mL + TSH 3 ng/mL; Exp 1,[3],65.5 pmol/mL
same,Cyclic AMP produced; 5B3 100 µg/mL + TSH 3 ng/mL; Exp 2,[3],98.1 pmol/mL
same,Cyclic AMP produced; 5B3 100 µg/mL + TSH 3 ng/mL; Experiment 1,[3],146 pmol/mL
same,Cyclic AMP produced; 5B3 100 µg/mL + TSH 3 ng/mL; Experiment 2,[3],68.9 pmol/mL
same,% inhibition of TSH stimulation; 5B3 10 µg/mL,[3]; record 2,0%
same,% inhibition of TSH stimulation; 5B3 10 µg/mL; Experiment 1,[3]; record 2,4%
same,% inhibition of TSH stimulation; 5B3 10 µg/mL; Experiment 2,[3]; record 2,0%
same,% inhibition of TSH stimulation; 5B3 100 µg/mL,[3]; record 2,0%
same,% inhibition of TSH stimulation; 5B3 100 µg/mL; Experiment 1,[3]; record 2,0%
same,% inhibition of TSH stimulation; 5B3 100 µg/mL; Experiment 2,[3]; record 2,0%
same,Cyclic AMP produced; 5B3 10 µg/mL + TSH 3 ng/mL,[3]; record 2,93.7 pmol/mL
same,Cyclic AMP produced; 5B3 100 µg/mL + TSH 3 ng/mL,[3]; record 2,109 pmol/mL
same,% inhibition of TSH stimulation; 5B3 10 µg/mL; Experiment 1,[4],19%
same,% inhibition of TSH stimulation; 5B3 10 µg/mL; Experiment 2,[4],4%
same,% inhibition of TSH stimulation; 5B3 100 µg/mL; Experiment 1,[4],11%
same,% inhibition of TSH stimulation; 5B3 100 µg/mL; Experiment 2,[4],0%
same,Mutated/wild type (%) of cyclic AMP produced; test sample 5B3 10 µg/mL + TSH (3 ng/mL); Experiment 1,[4],67%
same,Mutated/wild type (%) of cyclic AMP produced; test sample 5B3 10 µg/mL + TSH (3 ng/mL); Experiment 2,[4],80%
same,Mutated/wild type (%) of cyclic AMP produced; test sample 5B3 100 µg/mL + TSH (3 ng/mL); Experiment 1,[4],71%
same,Mutated/wild type (%) of cyclic AMP produced; test sample 5B3 100 µg/mL + TSH (3 ng/mL); Experiment 2,[4],87%
same,% inhibition of TSH stimulation; 5B3 10 µg/mL; Experiment 1,[5],16%
same,% inhibition of TSH stimulation; 5B3 10 µg/mL; Experiment 2,[5],4%
same,% inhibition of TSH stimulation; 5B3 100 µg/mL; Experiment 1,[5],16%
same,% inhibition of TSH stimulation; 5B3 100 µg/mL; Experiment 2,[5],8%
same,Cyclic AMP produced; 5B3 10 µg/mL + TSH 3 ng/mL; Experiment 1,[5],139 pmol/mL
same,Cyclic AMP produced; 5B3 10 µg/mL + TSH 3 ng/mL; Experiment 2,[5],71.9 pmol/mL
same,Cyclic AMP produced; 5B3 100 µg/mL + TSH 3 ng/mL; Experiment 1,[5],139 pmol/mL
same,Cyclic AMP produced; 5B3 100 µg/mL + TSH 3 ng/mL; Experiment 2,[5],68.5 pmol/mL
same,Mutated/wild type (%) of cyclic AMP produced; 5B3 10 µg/mL + TSH 3 ng/mL; Experiment 1,[5],85%
same,Mutated/wild type (%) of cyclic AMP produced; 5B3 10 µg/mL + TSH 3 ng/mL; Experiment 2,[5],96%
same,Mutated/wild type (%) of cyclic AMP produced; 5B3 100 µg/mL + TSH 3 ng/mL; Experiment 1,[5],95%
same,Mutated/wild type (%) of cyclic AMP produced; 5B3 100 µg/mL + TSH 3 ng/mL; Experiment 2,[5],99%
same,% inhibition of TSH stimulation; 5B3 10 µg/mL,[6],15%
same,% inhibition of TSH stimulation; 5B3 100 µg/mL,[6],17%
same,Cyclic AMP produced; 5B3 10 µg/mL + TSH 3 ng/mL,[6],70.9 pmol/mL
same,Cyclic AMP produced; 5B3 100 µg/mL + TSH 3 ng/mL,[6],66.8 pmol/mL
same,Mutated/wild type (%) of cyclic AMP produced; 5B3 10 µg/mL + TSH 3 ng/mL,[6],83%
same,Mutated/wild type (%) of cyclic AMP produced; 5B3 100 µg/mL + TSH 3 ng/mL,[6],82%
same,% inhibition of TSH stimulation; 5B3 10 µg/mL,[7],0%
same,% inhibition of TSH stimulation; 5B3 100 µg/mL,[7],9%
same,Mutated/wild type (%) of cyclic AMP produced; 5B3 10 µg/mL + TSH 3 ng/mL,[7],68%
same,Mutated/wild type (%) of cyclic AMP produced; 5B3 100 µg/mL + TSH 3 ng/mL,[7],55%
same,% inhibition of TSH stimulation; 5B3 10 µg/mL,[8],1%
same,% inhibition of TSH stimulation; 5B3 10 µg/mL; Experiment 1,[8],0%
same,% inhibition of TSH stimulation; 5B3 10 µg/mL; Experiment 2,[8],0%
same,% inhibition of TSH stimulation; 5B3 100 µg/mL,[8],0%
same,% inhibition of TSH stimulation; 5B3 100 µg/mL; Experiment 1,[8],2%
same,% inhibition of TSH stimulation; 5B3 100 µg/mL; Experiment 2,[8],0%
same,% inhibition of TSH stimulation; 5B3 10 µg/mL,[9],11%
same,% inhibition of TSH stimulation; 5B3 100 µg/mL,[9],0%
same,Cyclic AMP produced; 5B3 10 µg/mL + TSH 3 ng/mL,[9],105 pmol/mL
same,Cyclic AMP produced; 5B3 100 µg/mL + TSH 3 ng/mL,[9],128 pmol/mL
same,Mutated/wild type (%) of cyclic AMP produced; 5B3 10 µg/mL + TSH 3 ng/mL,[9],112%
same,Mutated/wild type (%) of cyclic AMP produced; 5B3 100 µg/mL + TSH 3 ng/mL,[9],117%
same,% inhibition of TSH stimulation; 5B3 10 µg/mL,[10],0%
same,Cyclic AMP produced; 5B3 10 µg/mL + TSH 3 ng/mL,[10],131 pmol/mL
same,Cyclic AMP produced; 5B3 100 µg/mL + TSH 3 ng/mL,[10],112 pmol/mL
same,% inhibition of TSH stimulation; 5B3 10 µg/mL,[11],9%
same,% inhibition of TSH stimulation; 5B3 100 µg/mL,[11],0%
same,Cyclic AMP produced; 5B3 10 µg/mL + TSH 3 ng/mL,[11],101 pmol/mL
same,Cyclic AMP produced; 5B3 100 µg/mL + TSH 3 ng/mL,[11],116 pmol/mL
same,Mutated/wild type (%) of cyclic AMP produced; 5B3 10 µg/mL + TSH 3 ng/mL,[11],77%
same,Mutated/wild type (%) of cyclic AMP produced; 5B3 100 µg/mL + TSH 3 ng/mL,[11],103%
same,% inhibition of TSH stimulation; 5B3 10 µg/mL,[12],2%
same,% inhibition of TSH stimulation; 5B3 100 µg/mL,[12],0%
same,Cyclic AMP produced; 5B3 10 µg/mL + TSH 3 ng/mL,[12],78.2 pmol/mL
same,Cyclic AMP produced; 5B3 100 µg/mL + TSH 3 ng/mL,[12],86.9 pmol/mL
same,% inhibition of TSH stimulation; 5B3 10 µg/mL,[13],8%
same,% inhibition of TSH stimulation; 5B3 100 µg/mL,[13],6%
same,Cyclic AMP produced; 5B3 10 µg/mL + TSH 3 ng/mL,[13],111 pmol/mL
same,Cyclic AMP produced; 5B3 100 µg/mL + TSH 3 ng/mL,[13],114 pmol/mL
same,Mutated/wild type (%) of cyclic AMP produced; 5B3 10 µg/mL + TSH 3 ng/mL,[13],142%
same,Mutated/wild type (%) of cyclic AMP produced; 5B3 100 µg/mL + TSH 3 ng/mL,[13],131%
